According to patent publication US8722896B2, “Prokineticin receptor antagonists and uses thereof” (The Regents of the University of California, priority 2008, dated 2014):

How the values were obtained:
[1] = Glucose-induced insulin secretion in vivo after PK2 administration; design: species or system mice; conditions: glucose i.p., 30 min (FIG. 10)
Source text: To understand whether insulin is directly involved, the inventors examined whether PK2 and/or its two cognate receptors, PKR1 and PKR2, are expressed in pancreas beta cells. […] The inventors tested whether this glucose-induced insulin secretion was inhibited by PK2. […] Consistent with the inhibitory effect of PK2 on insulin secretion, PK2-deficient mice have increased circulating insulin level. It is likely that at least some of glucose-lowering effects of PK2 antagonists were due to their abilities to increase insulin secretion as depicted in FIG. 11.

MIN6 cells [2] = experiment: Glucose-stimulated insulin secretion in MIN6 cells; format: cell-based; conditions: 15 mM glucose, PK2 added (FIG. 12A)
Source text: (§1) To investigate the direct effects of PK2 on the insulin secretion, the inventors performed a glucose-stimulated insulin secretion on β-cell like MIN6 cells. […] To specifically test the effects of endogenous PK2, the inventors treated MIN6 cells with 4Ind-3Cl-R-BMA along with low and high concentrations of glucose. […] As PK2 receptors have been reported coupling to Gi or Gq proteins, the inventors examined the possible signaling transduction of PK2 receptor in MIN6 cells.

MIN6 cells [3] = experiment: Cytosolic calcium mobilization in MIN6 cells; format: cell-based
Source text: as §1

MIN6 cells [4] = experiment: Forskolin-induced cAMP levels in MIN6 cells; format: cell-based; conditions: PK2 (FIG. 12C)
Source text: as §1

[5] = PK2 administration in GTT, wild type mice; format: in vivo; conditions: 10 nmol/kg and 200 nmol/kg, wild type mice (FIG. 8)
Description: The compound (3R)-1-Benzyl-N-(9-chloro-3,4-dihydro-2H-1,5-benzodioxepin-7-ylmethyl)-N-isobutyl pyrrolidine-3-carboxamide (3Cl-R-PLP) was dissolved in PEG-400 and then resuspended in water with 8% final concentration of PEG-400.8% PEG-400 in water without drug was used as vehicle. Mice were fed with regular chow. Drug or vehicle was gavaged to mice that were fasted overnight. Two hours later, glucose (2 g/kg of body weight) was injected i.p. and whole venous blood obtained from the tail vein at 0, 15, 30, 90 and 120 min after the injection was measured for glucose by using an automatic glucometer (one Touch, Lifescan, Daly, Calif.).
The inventors next tested the effect of PK2 administration on the performance of GTT test in wild type mice. […] This is consistent with observations that PK2-deficient mice have enhanced glucose clearance abilities.

B1: PK2: "Mature human prokineticins (PK1 and PK2) contain 86 and 81 amino acids, respectively"; "recombinant PK2" used as agonist (protein, UniProt Q9HC23 28-129, looked up)
Prokineticin-2: AVITGACDKDSQCGGGMCCAVSIWVKSIRICTPMGKLGDSCHPLTRKNNFGNGRQERRKRKRSKRKKEVPFFGRRMHHTCPCLPGLACLRTSFNRFICLAQK
glucose-induced elevation of circulating insulin [1]: significantly inhibited glucose-induced elevation of insulin in circulation
insulin secretion induced by glucose (MIN6 cells [2]): significantly suppressed the insulin secretion
cytosolic calcium mobilization (MIN6 cells [3]): didn't elicit cytosolic calcium mobilization
forskolin-induced cAMP levels (MIN6 cells [4]): significantly inhibited forskolin-induced cAMP levels
rate of glucose clearance in GTT [5]: significantly reduced the rate of glucose clearance
